Laboratory results from patent publication US20160130347A1 (Hoffmann-La Roche, published 2016).

Assays:
[1] = target: human MCSP on tumor cells (human, UniProt Q6UVK1 30-2322); assay: cell-based or functional assay
human CD3 on T cells = human CD3 on T cells (human, UniProt P07766 23-126); assay: cell-based or functional assay
Chain of human CD3 on T cells (P07766 23-126 limits assumed): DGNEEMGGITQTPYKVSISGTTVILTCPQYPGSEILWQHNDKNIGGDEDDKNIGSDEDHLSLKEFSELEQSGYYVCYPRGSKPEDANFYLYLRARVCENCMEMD

Chain of human MCSP on tumor cells (Q6UVK1 30-2322): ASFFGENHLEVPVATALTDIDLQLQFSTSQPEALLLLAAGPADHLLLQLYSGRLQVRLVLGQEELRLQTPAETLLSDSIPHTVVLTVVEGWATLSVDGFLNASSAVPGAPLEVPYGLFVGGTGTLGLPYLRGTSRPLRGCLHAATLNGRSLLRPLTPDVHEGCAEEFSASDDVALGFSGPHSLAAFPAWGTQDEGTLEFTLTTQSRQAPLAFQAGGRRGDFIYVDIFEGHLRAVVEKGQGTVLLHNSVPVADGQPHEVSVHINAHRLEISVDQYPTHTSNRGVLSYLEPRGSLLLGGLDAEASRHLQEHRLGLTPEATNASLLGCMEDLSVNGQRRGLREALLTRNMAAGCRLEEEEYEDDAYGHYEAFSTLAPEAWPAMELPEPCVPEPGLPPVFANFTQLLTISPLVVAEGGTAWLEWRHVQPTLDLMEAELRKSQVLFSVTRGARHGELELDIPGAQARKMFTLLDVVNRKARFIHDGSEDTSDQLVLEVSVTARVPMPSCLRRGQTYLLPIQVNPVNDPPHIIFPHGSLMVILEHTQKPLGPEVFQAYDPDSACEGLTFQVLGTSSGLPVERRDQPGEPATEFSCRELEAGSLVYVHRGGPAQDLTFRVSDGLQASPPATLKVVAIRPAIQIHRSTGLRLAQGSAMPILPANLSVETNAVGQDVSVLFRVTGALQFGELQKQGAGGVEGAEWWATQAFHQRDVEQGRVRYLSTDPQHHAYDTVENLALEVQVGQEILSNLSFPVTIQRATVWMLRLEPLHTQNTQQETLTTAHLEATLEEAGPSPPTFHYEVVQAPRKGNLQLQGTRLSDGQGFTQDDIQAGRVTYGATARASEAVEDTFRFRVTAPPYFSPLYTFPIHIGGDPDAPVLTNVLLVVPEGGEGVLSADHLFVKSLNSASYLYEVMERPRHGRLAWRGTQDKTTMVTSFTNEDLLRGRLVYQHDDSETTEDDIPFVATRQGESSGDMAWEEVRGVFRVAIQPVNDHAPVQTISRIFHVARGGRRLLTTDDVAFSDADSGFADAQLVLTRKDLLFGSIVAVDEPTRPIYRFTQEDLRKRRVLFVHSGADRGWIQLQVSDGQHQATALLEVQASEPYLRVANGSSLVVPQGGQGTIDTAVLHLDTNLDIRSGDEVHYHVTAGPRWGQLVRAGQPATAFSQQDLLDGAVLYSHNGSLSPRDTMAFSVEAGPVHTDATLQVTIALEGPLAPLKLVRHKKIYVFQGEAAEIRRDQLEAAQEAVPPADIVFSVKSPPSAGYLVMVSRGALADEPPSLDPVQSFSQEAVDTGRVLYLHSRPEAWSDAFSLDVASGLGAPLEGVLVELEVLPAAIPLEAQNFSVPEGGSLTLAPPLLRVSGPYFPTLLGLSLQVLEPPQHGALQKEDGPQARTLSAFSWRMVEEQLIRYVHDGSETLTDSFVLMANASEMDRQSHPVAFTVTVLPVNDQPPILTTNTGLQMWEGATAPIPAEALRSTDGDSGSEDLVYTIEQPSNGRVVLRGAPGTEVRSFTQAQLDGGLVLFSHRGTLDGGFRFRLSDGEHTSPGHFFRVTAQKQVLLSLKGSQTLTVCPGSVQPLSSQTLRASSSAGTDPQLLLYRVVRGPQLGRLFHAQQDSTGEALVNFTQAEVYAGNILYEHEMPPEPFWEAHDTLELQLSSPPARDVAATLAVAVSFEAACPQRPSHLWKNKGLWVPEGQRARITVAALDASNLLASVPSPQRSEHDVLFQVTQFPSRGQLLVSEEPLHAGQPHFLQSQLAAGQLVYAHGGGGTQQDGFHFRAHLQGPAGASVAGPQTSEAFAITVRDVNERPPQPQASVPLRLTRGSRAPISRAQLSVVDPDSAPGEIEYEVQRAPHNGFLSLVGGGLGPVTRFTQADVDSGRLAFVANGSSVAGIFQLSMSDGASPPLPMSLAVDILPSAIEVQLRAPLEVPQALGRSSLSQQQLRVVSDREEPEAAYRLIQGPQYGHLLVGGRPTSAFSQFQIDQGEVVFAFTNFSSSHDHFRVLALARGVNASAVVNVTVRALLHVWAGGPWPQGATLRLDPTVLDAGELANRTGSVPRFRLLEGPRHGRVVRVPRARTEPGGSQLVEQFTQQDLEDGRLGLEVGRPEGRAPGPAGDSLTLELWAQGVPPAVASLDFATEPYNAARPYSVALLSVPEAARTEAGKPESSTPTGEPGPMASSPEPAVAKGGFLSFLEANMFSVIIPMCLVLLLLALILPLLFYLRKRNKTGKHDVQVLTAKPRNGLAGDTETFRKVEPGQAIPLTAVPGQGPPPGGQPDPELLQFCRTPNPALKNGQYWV

B1: (scFv)2 (antiMCSP/anti huCD3e) (bispecific antibody)
scFv: DIVLTQSPSSLSASLGDRVTISCSASQGIRNYLNWYQQRPDGTVKLLIYYTSSLHSGVPSRFSGSGSGTDYSLTISNLEPEDIATYYCQQYSKLPWTFGGGTKLEIKGGGGSGGGGSGGGGSEVQLQESGPGLVKPSQSLSLTCSVTGYSITSGYYWNWIRQFPGNKLEWMGYITYDGSNNYNPSLKNRISITRDTSKNQFFLKLNSVTTEDTATYYCADFDYWGQGTTLTVSSGGGGSEVQLVESGGGLVQPGGSLRLSCAASGYSFTGYTMNWVRQAPGKGLEWVALINPYKGVSTYNQKFKDRFTISVDKSKNTAYLQMNSLRAEDTAVYYCARSGYYGDSDWYFDVWGQGTLVTVSSVEGGSGGSGGSGGSGGVDDIQMTQSPSSLSASVGDRVTITCRASQDIRNYLNWYQQKPGKAPKLLIYYTSRLESGVPSRFSGSGSGTDYTLTISSLQPEDFATYYCQQGNTLPWTFGQGTKVEIKHHHHHH
EC50 of killing (LDH release) of MV-3 cells, human PBMCs, E:T 10:1, ~24 h [1]: 0.0571 nM | EC50 of killing (LDH release) of MV-3 cells, human PBMCs, E:T 10:1, ~24 h (human CD3 on T cells): 0.0571 nM
